Kd and other data for three molecules are collected here from article PMC9891525 (PLOS Pathogens, 2023).

For this assay, the target named is SARS-CoV-2 WT spike RBD (SARS-CoV-2, wild type, UniProt P0DTC2). The assay is described as follows: SPR; Biacore 2000; […]; 45 μL/min, 180 s binding, […] dissociation; 1:1 binding model. The following applies: both partners purified.

B1: purified monoclonal antibody d7 (S97Y, D54I, N57H) (antibody, V domains shown)
VH: QVQLVESGGGVVQPGRSLRLSCAASGFTFSNYAMYWVRQAPGKGLEWVAVISYIGSHKYYADSVKGRFTISRDNSKNTLYLQMNSLRTEDTAVYYCASGSDYGDYLLVYWGQGTLVTVSS
VL: QSALTQPASVSGSPGQSITISCTGTSSDVGGYNYVSWYQQHPGKAPKLMIYDVSKRPSGVSNRFSGSKSGNTASLTISGLQSEDEADYYCNSLTSIYTWVFGGGTKLTVL
Broadly, the Kd is the constant that tells how readily two partners part at equilibrium. Molecule B1 showed a Kd of 0.15 nM and an other of 3 times.

B2: purified monoclonal antibody d9 (S97Y, D54L, N57H) (antibody, V domains shown)
VH: QVQLVESGGGVVQPGRSLRLSCAASGFTFSNYAMYWVRQAPGKGLEWVAVISYLGSHKYYADSVKGRFTISRDNSKNTLYLQMNSLRTEDTAVYYCASGSDYGDYLLVYWGQGTLVTVSS
VL: QSALTQPASVSGSPGQSITISCTGTSSDVGGYNYVSWYQQHPGKAPKLMIYDVSKRPSGVSNRFSGSKSGNTASLTISGLQSEDEADYYCNSLTSIYTWVFGGGTKLTVL
Molecule B2 registered a Kd of 0.17 nM and an other of 3 times.

B3: purified monoclonal antibody A3 (N57A, L106N) (antibody, V domains shown)
VH: QVQLVESGGGVVQPGRSLRLSCAASGFTFSNYAMYWVRQAPGKGLEWVAVISYDGSAKYYADSVKGRFTISRDNSKNTLYLQMNSLRTEDTAVYYCASGSDYGDYNLVYWGQGTLVTVSS
VL: QSALTQPASVSGSPGQSITISCTGTSSDVGGYNYVSWYQQHPGKAPKLMIYDVSKRPSGVSNRFSGSKSGNTASLTISGLQSEDEADYYCNSLTSISTWVFGGGTKLTVL
Consider B3, for which the affinity, expressed as Kd, was 0.17 nM and the other is 3 times.
